Patent publication US5998188
Each block holds one molecule with its values, some of them ahead of it.

Molecular target: MAP kinase (ERKs) of PC12 cells

Gal4-Elk-1 dependent luciferase activity induced by Raf BxB in PC12 cells (% of maximal levels): 90
Molecule: MKP-2 (rat mitogen-activated protein kinase phosphatase-2), full length, expressed from CMV-MKP-2 in PC12 cells

Gal4-Elk-1 dependent luciferase activity induced by Raf BxB in PC12 cells (% of maximally stimulated levels): > 60
B1: MKP-1, full length, expressed from CMV-MKP-1 in PC12 cells (enzyme)
chain: MVMEVGILDAGGLRALLREGAAQCLLLDCRSFFAFNAGHIAGSVNVRFSTIVRRRAKGAMGLEHIVPNAELRGRLLAGAYHAVVLLDERSASLDGAKRDGTLALAAGALCREARSTQVFFLQGGYEAFSASCPELCSKQSTPTGLSLPLSTSVPDSAESGCSSCSTPLYDQGGPVEILSFLYLGSAYHASRKDMLDALGITALINVSANCPNHFEGHYQYKSIPVEDNHKADISSWFNEAIDFIDSIKDAGGRVFVHCQAGISRSATICLAYLMRTNRVKLDEAFEFVKQRRSIISPNFSFMGQLLQFESQVLAPHCSAEAGSPAMAVLDRGTSTTTVFNFPVSIPVHPTNSALNYLKSPITTSPSC
